T1: human UCN1 peptide, biotinylated (human, UniProt P55089 83-122, biotin at N- or C-terminus)
T1 construct: also called hUCN1 (NT Biotin); hUCN1 (CT Biotin)
T1 peptide (looked up): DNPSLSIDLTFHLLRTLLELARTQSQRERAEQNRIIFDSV

T2: biotinylated CRH (human and mouse, UniProt P01143 145-185 (rat entry), not fully specified; biotin; which end is not stated for the result (NT-biotin and CT-biotin forms were used))
T2 construct: also called biotin-CRH; CRH (NT biotin)
T2 peptide: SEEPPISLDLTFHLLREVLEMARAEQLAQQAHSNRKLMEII

T3: CRH (Central Region, NT Biotin) (N-terminal Biotin-K; C-terminal NH2)
T3 construct: also called Central CRH
T3 peptide: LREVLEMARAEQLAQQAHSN

T4: CRH (C-Terminal Region, NT Biotin) (N-terminal Biotin-K; C-terminal NH2)
T4 construct: central region plus C-terminal region of CRH; also called C-Terminal CRH; C-Ter-CRH
T4 peptide: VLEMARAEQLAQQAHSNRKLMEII

T5: human UCN2 peptide, biotinylated (human, UniProt Q96RP3 72-109, limits assumed, biotin at N- or C-terminus)
T5 construct: also called hUCN2 (NT Biotin); hUCN2 (CT Biotin)
T5 peptide (looked up): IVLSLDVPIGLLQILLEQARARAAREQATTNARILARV

T6: CRH (Central Region, CT Biotin) (C-terminal K-Biotin)
T6 construct: also called Central CRH
T6 peptide: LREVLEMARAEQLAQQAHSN

T7: N-Terminal CRH peptide (N-terminal region plus central region, CT biotin) (human and mouse, C-terminal K-Biotin)
T7 construct: also called N-Ter-CRH
T7 peptide: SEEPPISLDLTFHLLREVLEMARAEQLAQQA

T8: human UCN3 peptide, biotinylated (human, UniProt Q969E3 120-157, biotin at N- or C-terminus)
T8 construct: also called hUCN3 (NT Biotin); hUCN3 (CT Biotin)
T8 peptide (looked up): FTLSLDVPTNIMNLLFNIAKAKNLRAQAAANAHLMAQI

T9: corticotropin-releasing hormone (CRH) peptide (human and mouse, UniProt P01143 145-185 (rat entry), not fully specified)
T9 peptide: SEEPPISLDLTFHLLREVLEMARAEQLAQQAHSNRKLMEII


Assays:
[1] = target: T1, human UCN1 peptide, biotinylated; experiment: ELISA, hUCN1 (NT biotin)
Description: (§1) Streptavidin (Thermo, Cat: 21125) was diluted in PBS to a concentration of 2 μg/ml. 100 μl of diluted streptavidin was added per well to ELISA microplates, and the plates were incubated overnight at 4° C. […] Subsequently, plates were washed and incubated with HRP-conjugated goat anti-human IgG (H+L) antibody (Jackson, Cat: 109-035-088) at 37° C. for 1 hour. 100 μL of 3,3′,5,5′-tetramethylbenzidine (TMB) substrate (Biopanda, Cat: TMB-S-003) was added, and the plates were incubated at room temperature for 15 minutes. 100 μL of ELISA stopping solution (Solarbio, Cat #: C1058) was added to terminate the reaction, and the optical density at 450 nm (OD450 nm) was determined by an ELISA plate reader (Molecular Devices, Spectra max 384 plus).

[2] = target: T1, human UCN1 peptide, biotinylated; experiment: ELISA, hUCN1 (CT biotin)
Description: as §1

biotinylated CRH [3] = target: T2, biotinylated CRH; experiment: ELISA, CRH (CT biotin)
Description: as §1

biotinylated CRH [4] = target: T2, biotinylated CRH; experiment: ELISA, CRH (NT biotin)
Description: as §1

[5] = target: T3, CRH (Central Region, NT Biotin); experiment: ELISA, CRH central region peptide (NT biotin)
Description: as §1

[6] = target: T4, CRH (C-Terminal Region, NT Biotin); experiment: ELISA, CRH C-terminal region peptide (NT biotin)
Description: as §1

[7] = target: T5, human UCN2 peptide, biotinylated; experiment: ELISA, hUCN2 (NT biotin) and (CT biotin)
Description: (§2) Streptavidin (Thermo, Cat: 21125) was diluted in PBS with a concentration of 2 μg/mL. 100 μL of diluted streptavidin was added per well to ELISA microplates, and the plates were incubated overnight at 4° C. Plates were blocked with ELISA blocking solution (containing 2% w/v BSA, 0.05% (v/v) Tween-20, pH 7.4 PBS buffer) at 37° C. for 1 hour, and then incubated with either 1 μg/mL hUCN1 (NT Biotin), hUCN1 (CT Biotin), hUCN2 (NT Biotin), hUCN2 (CT Biotin), hUCN3 (NT Biotin), or hUCN3 (CT Biotin) for 1 hour at 37° C. […] Plates were subsequently washed and incubated with HRP-conjugated goat anti-human IgG (H+L) antibody (Jackson, Cat: 109-035-088) at 37° C. for 1 hour. 100 μl of TMB Substrate (Biopanda, Cat: TMB-S-003) was added, and the plates were incubated at room temperature for 15 minutes. 100 μL of ELISA stopping solution (Solarbio, Cat #: C1058) was then added to terminate the reaction, and the OD450 nm was determined by an ELISA plate reader (Molecular Devices, Spectra max 384 plus).

[8] = target: T6, CRH (Central Region, CT Biotin); experiment: ELISA, CRH central region peptide (CT biotin)
Description: as §1

[9] = target: T1, human UCN1 peptide, biotinylated; experiment: ELISA, hUCN1 (NT biotin) and (CT biotin), mAb at 100 and 10 nM
Description: as §2

[10] = target: T7, N-Terminal CRH peptide (N-terminal …); experiment: ELISA, N-Ter-CRH (CT-biotin) on streptavidin
Description: as §1

[11] = target: T8, human UCN3 peptide, biotinylated; experiment: ELISA, hUCN3 (NT biotin) and (CT biotin)
Description: as §2

[12] = target: T9, corticotropin-releasing hormone (CRH) …; experiment: cell-based or functional assay
biotinylated CRH [13] = target: T2, biotinylated CRH; experiment: ELISA, CRH (NT biotin)
[14] = target: T9, corticotropin-releasing hormone (CRH) …; experiment: cell-based or functional assay

Binder | EC50 (read off the curve) [1] | EC50 (read off the curve) [2] | EC50 (read off the curve) (biotinylated CRH [3]) | EC50 (read off the curve) (biotinylated CRH [4]) | binding result [5] | binding result [6] | binding result [7] | binding result [8] | binding result [9] | EC50 [10] | binding result [11] | hCRHR1-Luc 0.5 nM CRH IC50 [12] | binding result (biotinylated CRH [13]) | unlabelled nM value (Table 5 matrix; likely hCRHR1-Luc IC50 as in Tables 6-8) [14]
PR302341-34 (antibody, human IgG1, kappa, V domains shown) VH: QVQLVQSGAEVKKPGASVKVSCKASGYTFTDYFMKWVRQAPGQGLEWMGVINPNQGDIFYNQKFKGRVTMTVDKSISTAYMELSRLRSDDTAVYYCARGTDRALFAYWGQGTLVTVSS VL: DVVMTQSPLSLPVTLGQPASISCRSGQSIVHSDANTYLEWYQQRPGQSPRLLIYKVSNRFSGVPDRFSGSGSGTDFTLKISRVEAEDLGVYYCFQGSHIPWTFGGGTKVEIKR | ~0.02 nM | ~0.03 nM | ~0.03 nM | ~0.03 nM | no binding (tested: 100 nM) | no binding (tested: 100 nM) | no binding (tested: 100 nM) | no binding (tested: 100 nM) |  |  |  |  |  | 
PR302341-48 (antibody, human IgG1, kappa, V domains shown) VH: QVQLVQSGAEVKKPGASVKVSCKASGYTFTDYFMKWVRQAPGQGLEWMGVINPNQGDIFYNQKFKGRVTMTVDKSTSTAYMELSSLRSEDTAVYYCARGTDRALFAYWGQGTLVTVSS VL: DVVMTQTPLSSPVTLGQPASISCRSGQSIVHSDANTYLEWYQQRPGQPPRLLIYKVSNRFSGVPDRFSGSGAGTDFTLKISRVEAEDLGVYYCFQGSHIPWTFGGGTKVEIKR |  |  |  |  |  |  | no binding (tested: 100 nM) |  | binds |  |  |  |  | 
PR302341-60 (antibody, human IgG1, kappa, V domains shown) VH: QVQLVQSGAEVKKPGASVKVSCKASGYTFTDYFMKWVRQAPGQRLEWMGVINPNQGDIFYNQKFKGRVTITRDTSASTAYMELSSLRSEDTAVYYCARGTDRALFAYWGQGTLVTVSS VL: DVVMTQSPLSLPVTLGQPASISCRSGQSIVHSDANTYLEWYQQRPGQSPRLLIYKVSNRFSGVPDRFSGSGSGTDFTLKISRVEAEDLGVYYCFQGSHIPWTFGGGTKVEIKR |  |  |  |  |  |  | no binding (tested: 100 nM) |  | binds |  |  |  |  | 
PR302341-28 (antibody, human IgG1, kappa, V domains shown) VH: QVQLVQSGAEVKKPGASVKVSCKASGYTFTDYFMKWVRQAPGQGLEWMGVINPNQGDIFYNQKFKGRVTMTVDKSISTAYMELSRLRSDDTAVYYCARGTDRALFAYWGQGTLVTVSS VL: DVVMTQSPLSLPVTLGQPASISCRSGQSIVHSDGNTYLEWYQQRPGQSPRLLIYKVSNRFSGVPDRFSGSGSGTDFTLKISRVEAEDLGVYYCFQGSHIPWTFGGGTKVEIKR |  |  |  |  |  |  | no binding (tested: 100 nM) |  | binds |  |  |  |  | 
PR302341-55 (antibody, human IgG1, kappa, V domains shown) VH: QVQLVQSGAEVKKPGASVKVSCKASGYTFTDYFMKWVRQAPGQRLEWMGVINPNNADIFYNQKFKGRVTITRDTSASTAYMELSSLRSEDTAVYYCARGTDRALFAYWGQGTLVTVSS VL: DVVMTQSPLSLPVTLGQPASISCRSGQSIVHSDGNTYLEWYQQRPGQSPRLLIYKVSNRFSGVPDRFSGSGSGTDFTLKISRVEAEDLGVYYCFQGSHIPWTFGGGTKVEIKR |  |  |  |  |  |  | no binding (tested: 100 nM) |  | binds |  |  |  |  | 
PR302309-11 (antibody, human IgG1, kappa, V domains shown) VH: QIQLVQSGSELKKPGASVKVSCKASGYTFTNYGMNWVRQAPGQGLEWMGWINTYTGEPIYTDDFKGRFVFSLDTSVSTAYLQISSLKAEDTAVYYCSRSTMITTGGVFAYWGQGTLVTVSS VL: DIVMTQTPLSSPVTLGQPASISCRSSQTIVHSDGNTYLEWLQQRPGQPPRLLIYKVSNRFSGVPDRFSGSGAGTDFTLKISRVEAEDVGVYYCFQGSHVPWTFGGGTKVEIKR | ~0.07 nM | ~0.4 nM | ~0.03 nM | ~0.03 nM | no binding (tested: 100 nM) | no binding (tested: 100 nM) | no binding (tested: 100 nM) | no binding (tested: 100 nM) |  | 0.028 nM | no binding (tested: 100 nM) | 2.12 nM |  | 
PR302309-18 (antibody, human IgG1, kappa, V domains shown) VH: QVQLVQSGAEVKKPGASVKVSCKASGYTFTNYGMNWVRQAPGQRLEWMGWINTYTGEPIYTDDFKGRVTITRDTSASTAYMELSSLRSEDTAVYYCARSTMITTGGVFAYWGQGTLVTVSS VL: DVVMTQSPLSLPVTLGQPASISCRSSQTIVHSDGNTYLEWYQQRPGQSPRLLIYKVSNRFSGVPDRFSGSGSGTDFTLKISRVEAEDLGVYYCFQGSHVPWTFGGGTKVEIKR | ~0.1 nM |  | ~0.03 nM | ~0.03 nM | no binding (tested: 100 nM) | no binding (tested: 100 nM) | no binding (tested: 100 nM) | no binding (tested: 100 nM) |  | 0.028 nM | no binding (tested: 100 nM) | 1.73 nM |  | 
PR301790 (antibody, human IgG1, kappa, V domains shown) VH: EMKLEESGGGLVQPGGSMKLSCVASGFTFSNYWMNWVRQSPEKGLEWVAEIRLKSNNYATHYAESVKGRFTISRDDSKSSVYLQMNNLRAEDTGIYYCTIGTLVYWGQGTLVTVSA VL: DIVLTQSPASLAVSLGQRATISCRASQSVSTSSYNYMHWYQQKPGQPPKLLIKFASNLESGVPARFSGSGSGTDFTLNIHPVEEEDTATFYCQHSWEIPYTFGGGTKLEIKR |  |  |  |  |  |  |  |  |  |  |  |  | binds | 
PR302064 (antibody, human IgG1, kappa, V domains shown) VH: EMQLVESGGGLVKPGGSLRLSCAASGFTFSNYWMNWVRQAPGKGLEWVAEIRLKSNNYATHYAESVKGRFTISRDDSKSTVYLQMNSLKTEDTAVYYCTVGTLVYWGQGTLVTVSS VL: DIVLTQSPDSLAVSLGERATINCRASQSVSTSTYNYMHWFQQKPGQPPKLLIKFASNLESGVPDRFSGSGSGTDFTLTISSLQAEDTAVYYCQHSWEIPYTFGQGTKLEIKR | ~0.1 nM | ~0.2 nM | ~0.03 nM | ~0.03 nM | no binding (tested: 100 nM) | no binding (tested: 100 nM) | no binding (tested: 100 nM) | no binding (tested: 100 nM) |  | 0.022 nM | no binding (tested: 100 nM) |  |  | 0.531 nM

Reference: US20250197490A1 (HBM ALPHA THERAPEUTICS, published 2025)
